What was measured:
[1] = biological target: N-terminal domain of murine CNPase (residues -1-160) (mouse); test: SEC; Superdex 75 10/300 GL; 20 mM Na-HEPES pH 8, 200 mM NaCl, 1 mM DTT; 250 µl at 1.7 mg/ml injected; molecular weight markers run under the same conditions
[2] = biological target: full-length CNPase construct (residues -1-378), mouse 2',3'-cyclic nucleotide 3'-phosphodiesterase lacking the 22-residue C-terminal tail (mouse); test: SEC-MALS; Sephadex S-200 column with online light scattering and refractive index detectors; 20 mM Bis-Tris-HCl pH 5.5, 300 mM NaCl, 1% glycerol, 1 mM DTT; monomer-dimer equilibrium

stoichiometry N [1] | stoichiometry N [2] | Substance
2 |  | N-terminal domain of murine CNPase (residues -1-160) (domain or fragment)
 | 2 | full-length CNPase construct (residues -1-378), mouse 2',3'-cyclic nucleotide 3'-phosphodiesterase lacking the 22-residue C-terminal tail (enzyme)

Source: publication PMC3290555
